Results on 36 molecules are retold here after article PMC10786891, “Massively parallel profiling of RNA-targeting CRISPR-Cas13d”.

In general, Kd refers to a measure of binding affinity in units of concentration.

Sequences and labels used below:
T1: EsCas13d, nuclease-dead (Eubacterium siraeum, UniProt B0MS50, R295A;H300A;R849A;H854A)
T1 sequence: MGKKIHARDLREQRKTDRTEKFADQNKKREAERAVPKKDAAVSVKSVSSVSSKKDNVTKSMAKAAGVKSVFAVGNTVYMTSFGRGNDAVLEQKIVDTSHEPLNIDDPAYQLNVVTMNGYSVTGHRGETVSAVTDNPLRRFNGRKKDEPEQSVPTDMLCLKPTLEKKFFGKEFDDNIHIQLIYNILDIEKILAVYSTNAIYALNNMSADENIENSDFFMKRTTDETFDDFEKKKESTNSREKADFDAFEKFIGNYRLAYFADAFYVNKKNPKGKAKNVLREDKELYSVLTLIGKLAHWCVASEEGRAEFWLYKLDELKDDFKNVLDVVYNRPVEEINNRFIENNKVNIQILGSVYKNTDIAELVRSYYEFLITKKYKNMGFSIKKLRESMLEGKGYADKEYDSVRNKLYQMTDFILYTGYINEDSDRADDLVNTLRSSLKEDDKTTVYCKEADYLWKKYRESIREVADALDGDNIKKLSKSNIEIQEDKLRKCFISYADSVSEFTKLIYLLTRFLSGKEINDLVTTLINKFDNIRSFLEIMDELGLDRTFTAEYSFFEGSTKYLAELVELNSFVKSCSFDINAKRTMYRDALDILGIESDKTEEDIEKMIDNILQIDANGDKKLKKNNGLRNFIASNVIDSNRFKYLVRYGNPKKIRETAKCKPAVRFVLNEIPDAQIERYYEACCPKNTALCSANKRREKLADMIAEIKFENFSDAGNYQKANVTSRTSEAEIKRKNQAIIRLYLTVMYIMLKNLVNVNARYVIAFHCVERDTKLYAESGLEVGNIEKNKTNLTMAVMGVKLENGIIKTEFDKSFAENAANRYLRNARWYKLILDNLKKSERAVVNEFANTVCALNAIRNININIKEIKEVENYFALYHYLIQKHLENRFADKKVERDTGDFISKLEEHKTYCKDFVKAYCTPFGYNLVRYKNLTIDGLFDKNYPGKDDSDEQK

B1: target 1 MT 5'PFS UAG 3'PFS UUU (mixed)
RNA 1: CACCCGUGCAAAAAUGCAGGGGUCUAAAACUGAGCGGAUAACCUCUCUAUGG
RNA 2: GGGAAUGGAUCCACAUCUACGAAUUCUAGCCAUAGAGAGGUUAUCCGCUCAUUUAGAUCGGAAGAGCACACGU
B2: target 1 MT 5'PFS CAC 3'PFS CUA (mixed)
RNA 1: B1 RNA 1
RNA 2: B1 RNA 2 with U27C, G29C, U52C, U54A
B3: target 1 MT 5'PFS GGG 3'PFS AUA (mixed)
RNA 1: B1 RNA 1
RNA 2: B1 RNA 2 with U27G, A28G, U52A, U54A
B4: target 1 MT 5'PFS GGA 3'PFS CGG (mixed)
RNA 1: B1 RNA 1
RNA 2: B1 RNA 2 with U27G, A28G, G29A, U52C, U53G, U54G
B5: target 1 MT 5'PFS GGG 3'PFS AUG (mixed)
RNA 1: B1 RNA 1
RNA 2: B1 RNA 2 with U27G, A28G, U52A, U54G
B6: target 1 insA 3' of 8,insA 3' of 2 (mixed)
RNA 1: B1 RNA 1
RNA 2: GGGAAUGGAUCCACAUCUACGAAUUCGUACCAUAGAGAGGUUAUACCGCUCAACCGAGAUCGGAAGAGCACACGU
B7: target 1 insA 3' of 8,insC 3' of 1 (mixed)
RNA 1: B1 RNA 1
RNA 2: B6 RNA 2 with A53C
B8: target 1 MT 5'PFS GCA 3'PFS GGA (mixed)
RNA 1: B1 RNA 1
RNA 2: B1 RNA 2 with U27G, A28C, G29A, U52G, U53G, U54A
B9: target 1 MT 5'PFS GGC 3'PFS UUU (mixed)
RNA 1: B1 RNA 1
RNA 2: B1 RNA 2 with U27G, A28G, G29C
B10: target 1 MT 5'PFS CAC 3'PFS CUG (mixed)
RNA 1: B1 RNA 1
RNA 2: B1 RNA 2 with U27C, G29C, U52C, U54G
B11: target 1 MT 5'PFS AAU 3'PFS CAU (mixed)
RNA 1: B1 RNA 1
RNA 2: B1 RNA 2 with U27A, G29U, U52C, U53A
B12: target 1 MT 5'PFS GAA 3'PFS ACC (mixed)
RNA 1: B1 RNA 1
RNA 2: B1 RNA 2 with U27G, G29A, U52A, U53C, U54C
B13: target 1 MT 5'PFS GUC 3'PFS ACC (mixed)
RNA 1: B1 RNA 1
RNA 2: B1 RNA 2 with U27G, A28U, G29C, U52A, U53C, U54C
B14: target 1 MT 5'PFS GGA 3'PFS CGC (mixed)
RNA 1: B1 RNA 1
RNA 2: B1 RNA 2 with U27G, A28G, G29A, U52C, U53G, U54C
B15: target 1 MT 5'PFS GGG 3'PFS AUU (mixed)
RNA 1: B1 RNA 1
RNA 2: B1 RNA 2 with U27G, A28G, U52A
B16: target 1 MT 5'PFS GCG 3'PFS UGU (mixed)
RNA 1: B1 RNA 1
RNA 2: B1 RNA 2 with U27G, A28C, U53G
B17: target 1 MT 5'PFS GGG 3'PFS AUC (mixed)
RNA 1: B1 RNA 1
RNA 2: B1 RNA 2 with U27G, A28G, U52A, U54C
B18: target 1 insU 3' of 22,insA 3' of 5 (mixed)
RNA 1: B1 RNA 1
RNA 2: GGGAAUGGAUCCACAUCUACGAAUUCGUACUCAUAGAGAGGUUAUCCGACUCACCGAGAUCGGAAGAGCACACGU
B19: target 1 insC 3' of 17,insU 3' of 4 (mixed)
RNA 1: B1 RNA 1
RNA 2: B18 RNA 2 with U31C, C32A, A33U, U34A, A35G, G36C, A49C, C50U
B20: target 1 MT 5'PFS UCC 3'PFS CUC (mixed)
RNA 1: B1 RNA 1
RNA 2: B1 RNA 2 with A28C, G29C, U52C, U54C
B21: target 1 MT 5'PFS CUG 3'PFS CAC (mixed)
RNA 1: B1 RNA 1
RNA 2: B1 RNA 2 with U27C, A28U, U52C, U53A, U54C
B22: target 1 MT 5'PFS GUG 3'PFS GCA (mixed)
RNA 1: B1 RNA 1
RNA 2: B1 RNA 2 with U27G, A28U, U52G, U53C, U54A
B23: target 1 MT 5'PFS UCC 3'PFS CUG (mixed)
RNA 1: B1 RNA 1
RNA 2: B1 RNA 2 with A28C, G29C, U52C, U54G
B24: target 1 MT 5'PFS UAA 3'PFS CCG (mixed)
RNA 1: B1 RNA 1
RNA 2: B1 RNA 2 with G29A, U52C, U53C, U54G
B25: target 1 MT 5'PFS UAU 3'PFS UGC (mixed)
RNA 1: B1 RNA 1
RNA 2: B1 RNA 2 with G29U, U53G, U54C
B26: target 1 MT 5'PFS GAA 3'PFS ACU (mixed)
RNA 1: B1 RNA 1
RNA 2: B1 RNA 2 with U27G, G29A, U52A, U53C
B27: target 1 MT 5'PFS UGC 3'PFS AAA (mixed)
RNA 1: B1 RNA 1
RNA 2: B1 RNA 2 with A28G, G29C, U52A, U53A, U54A
B28: target 1 MT 5'PFS AAG 3'PFS UCU (mixed)
RNA 1: B1 RNA 1
RNA 2: B1 RNA 2 with U27A, U53C
B29: target 1 MT 5'PFS UUA 3'PFS UGA (mixed)
RNA 1: B1 RNA 1
RNA 2: B1 RNA 2 with A28U, G29A, U53G, U54A
B30: target 1 MT 5'PFS GGA 3'PFS CGA (mixed)
RNA 1: B1 RNA 1
RNA 2: B1 RNA 2 with U27G, A28G, G29A, U52C, U53G, U54A
B31: target 1 MT 5'PFS GUC 3'PFS ACG (mixed)
RNA 1: B1 RNA 1
RNA 2: B1 RNA 2 with U27G, A28U, G29C, U52A, U53C, U54G
B32: target 1 MT 5'PFS CUU 3'PFS CAG (mixed)
RNA 1: B1 RNA 1
RNA 2: B1 RNA 2 with U27C, A28U, G29U, U52C, U53A, U54G
B33: target 1 MT 5'PFS UGC 3'PFS AAC (mixed)
RNA 1: B1 RNA 1
RNA 2: B1 RNA 2 with A28G, G29C, U52A, U53A, U54C
B34: target 1 MT 5'PFS GGC 3'PFS UUG (mixed)
RNA 1: B1 RNA 1
RNA 2: B1 RNA 2 with U27G, A28G, G29C, U54G
B35: target 1 MT 5'PFS GUG 3'PFS GCU (mixed)
RNA 1: B1 RNA 1
RNA 2: B1 RNA 2 with U27G, A28U, U52G, U53C
B36: target 1 MT 5'PFS GAA 3'PFS ACG (mixed)
RNA 1: B1 RNA 1
RNA 2: B1 RNA 2 with U27G, G29A, U52A, U53C, U54G

Numbering of substitutions follows the chain as printed.

The data set has as its target T1, EsCas13d, nuclease-dead. The data set is described as follows: crRNA (strand 1, pre-loaded); Mg2+; 40 mM Tris-HCl pH 7.5, 150 mM NaCl, 6 mM MgCl2, 1 mM DTT, 0.1% Tween-20, 0.2 mg/ml BSA; 25 C; 10 min per concentration, then washed. Conditions: tags: His6-TwinStrep-SUMO cleaved; N-terminal SNAP kept (SNAP-Surface 488); label: 3' end held by stalled T7 RNA polymerase.
As for B1, the Kd was determined as 23.4 ± 3.05 nM.

With B2, the Kd amounted to 16 ± 5 nM. To B3 belongs 32 ± 6.5 nM.

B4 gave an equilibrium dissociation constant (Kd) of 20.6 ± 3.8 nM. To B5 belongs 26.5 ± 4 nM. The value for B6 was 17.9 ± 0.6 nM; that for B7 was 14.7 ± 0.7 nM; that for B8 was 80 ± 40 nM. The value for B9 was 11.3 ± 1.85 nM; that for B10 was around 17 nM. B11 returned a Kd of 100 ± 45 nM. To B12 belongs around 80 nM; to B13, 25.8 ± 4.2 nM; to B14, 28.5 ± 11 nM. To B15 belongs 17.3 ± 2.1 nM; to B16, 41.5 ± 8.5 nM; to B17, 35.5 ± 9.5 nM. To B18 belongs 18.8 ± 1.6 nM; to B19, 46 ± 4 nM; to B20, around 24 nM. The molecule B21 came in with a Kd of 5.25 ± 1.6 nM. The value for B22 was 26 ± 4 nM; that for B23 was 14.5 ± 4.5 nM. To B24 belongs 47.5 ± 15.5 nM; to B25, around 59.5 nM; to B26, 34 ± 12.5 nM. In the case of B27, the Kd is around 50 nM.

Consider B28, for which the Kd was determined as 12.1 ± 3.65 nM. The value for B29 was 100 ± 40 nM; that for B30 was 33.5 ± 10 nM; that for B31 was 25 ± 6.6 nM. Take B32: binding was characterised by a dissociation constant (Kd) of 74 ± 30 nM. Against the preceding molecule, the Kd is about 3-fold higher.

For the molecule B33, the Kd was around 40 nM. To B34 belongs 9 ± 1.2 nM.

B35 yielded a Kd of 7 ± 0.7 nM. To B36 belongs around 82 nM.
